From article PMC6451091, “NextPBM: a platform to study cell-specific transcription factor binding and cooperativity” come the findings set out here.

The data set deals with PU.1 (IVT) (UniProt P17947 1-270). Kind of data set: PBM; 20 mM HEPES pH 7.9, 100 mM NaCl, 1 mM DTT, 0.2 mg/mL BSA, 0.02% Triton X-100, 2% milk, 0.4 mg/mL salmon testes DNA, 1 h; temperature not stated. The settings on record: protein: ivt; blunt. Summed up: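 Custom double-stranded DNA microarrays bearing 20-bp genomic sites and single-nucleotide variants (10 probes per site, 5 per orientation) were incubated for 1 h with full-length untagged PU.1 made by coupled human in vitro transcription/translation, in HEPES pH 7.9 with 100 mM NaCl, 2% milk and salmon testes DNA. Anti-PU.1 and a fluorescent secondary antibody detected the bound protein. Each binding value is a z-score from scanned fluorescence after linear-regression normalisation.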

B1: PBM_PU1_IRF8_v2_2 (dsDNA)
DNA 1: GCCTAGCACGAAAAGGGGAAGTGTATTCCGTGCTAGGTCTTGATTCGCTTGACGCTGCTG
DNA 2: CAGCAGCGTCAAGCGAATCAAGACCTAGCACGGAATACACTTCCCCTTTTCGTGCTAGGC
On to B1, for which the binding signal is 7.7 z-score.

B2: PBM_PU1_IRF8_v2_16 (dsDNA)
DNA 1: GCCTAGCACAATATAGGGAAGTGCTTAACGTGCTAGGTCTTGATTCGCTTGACGCTGCTG
DNA 2: CAGCAGCGTCAAGCGAATCAAGACCTAGCACGTTAAGCACTTCCCTATATTGTGCTAGGC
Consider B2, for which the binding signal is 5.82 z-score.

B3: PBM_PU1_IRF8_v2_30 (dsDNA)
DNA 1: GCCTAGCACATTTTAAGGAAGTGAAACCCGTGCTAGGTCTTGATTCGCTTGACGCTGCTG
DNA 2: CAGCAGCGTCAAGCGAATCAAGACCTAGCACGGGTTTCACTTCCTTAAAATGTGCTAGGC
As to B3, the binding signal was determined as 5.72 z-score.

B4: PBM_PU1_IRF8_v2_1 (dsDNA)
DNA 1: GCCTAGCACTAAAAGAGGAAGTGGCAGATGTGCTAGGTCTTGATTCGCTTGACGCTGCTG
DNA 2: CAGCAGCGTCAAGCGAATCAAGACCTAGCACATCTGCCACTTCCTCTTTTAGTGCTAGGC
Regarding B4, the binding signal was determined as 8.16 z-score.

B5: PBM_PU1_IRF8_v2_24 (dsDNA)
DNA 1: GCCTAGCACATAAGGAGGAAGTGAGACAGGTGCTAGGTCTTGATTCGCTTGACGCTGCTG
DNA 2: CAGCAGCGTCAAGCGAATCAAGACCTAGCACCTGTCTCACTTCCTCCTTATGTGCTAGGC
B5 returned a binding signal of 4.54 z-score.

B6: PBM_PU1_IRF8_v2_5 (dsDNA)
DNA 1: GCCTAGCACAAATAGAGGAAGTCAGAGAGGTGCTAGGTCTTGATTCGCTTGACGCTGCTG
DNA 2: CAGCAGCGTCAAGCGAATCAAGACCTAGCACCTCTCTGACTTCCTCTATTTGTGCTAGGC
In turn, B6 came in with a binding signal of 6.21 z-score.

B7: PBM_PU1_IRF8_v2_6 (dsDNA)
DNA 1: GCCTAGCACGAAGAGAGGAAGTGAAATTAGTGCTAGGTCTTGATTCGCTTGACGCTGCTG
DNA 2: CAGCAGCGTCAAGCGAATCAAGACCTAGCACTAATTTCACTTCCTCTCTTCGTGCTAGGC
Consider B7, for which the binding signal amounted to 5.03 z-score.

B8: PBM_PU1_IRF8_v2_13 (dsDNA)
DNA 1: GCCTAGCACGAAAAGAGGAAGTCAGATTGGTGCTAGGTCTTGATTCGCTTGACGCTGCTG
DNA 2: CAGCAGCGTCAAGCGAATCAAGACCTAGCACCAATCTGACTTCCTCTTTTCGTGCTAGGC
For the molecule B8, the binding signal stood at 8.24 z-score.

B9: PBM_PU1_IRF8_v2_22 (dsDNA)
DNA 1: GCCTAGCACGAAAAGAGGAAGTGGAAACAGTGCTAGGTCTTGATTCGCTTGACGCTGCTG
DNA 2: CAGCAGCGTCAAGCGAATCAAGACCTAGCACTGTTTCCACTTCCTCTTTTCGTGCTAGGC
In turn, B9 came in with a binding signal of 8.54 z-score.

B10: PBM_PU1_IRF8_v2_3 (dsDNA)
DNA 1: GCCTAGCACATAAGGAGGAAGTGGCTGAAGTGCTAGGTCTTGATTCGCTTGACGCTGCTG
DNA 2: CAGCAGCGTCAAGCGAATCAAGACCTAGCACTTCAGCCACTTCCTCCTTATGTGCTAGGC
In the case of B10, the binding signal came to 5.13 z-score.

B11: PBM_PU1_IRF8_v2_4 (dsDNA)
DNA 1: GCCTAGCACGAAAACAGGAAGTGGACAACGTGCTAGGTCTTGATTCGCTTGACGCTGCTG
DNA 2: CAGCAGCGTCAAGCGAATCAAGACCTAGCACGTTGTCCACTTCCTGTTTTCGTGCTAGGC
For the molecule B11, the binding signal came to 7.4 z-score.

B12: PBM_PU1_IRF8_v2_23 (dsDNA)
DNA 1: GCCTAGCACCAAATGAGGAAGTGAGACTTGTGCTAGGTCTTGATTCGCTTGACGCTGCTG
DNA 2: CAGCAGCGTCAAGCGAATCAAGACCTAGCACAAGTCTCACTTCCTCATTTGGTGCTAGGC
As to B12, the binding signal was determined as 7.69 z-score.
